Experiments:
EBOV GP[change] [1] = molecular target: T1, EBOV GP[change] (Ebola virus, UniProt Q05320)
MARV GP[change] = MARV GP[change] (Marburg virus, UniProt P35253)
EBOV GP[change] [2] = molecular target: T1, EBOV GP[change]; remark: listed apart in the source

B1: m5E4 (antibody, V domains shown)
VH: EVQLQESGGDLVKPGGSLKLSCAASGFTFSSYTMSWVRQTPERRLEWVATITSGGTYTYYPDSVKGRFTISRDNAKNTLYLQMTSLKSEDTAMYYCTREDGYYFSYWGQGTLVTVSA
VL: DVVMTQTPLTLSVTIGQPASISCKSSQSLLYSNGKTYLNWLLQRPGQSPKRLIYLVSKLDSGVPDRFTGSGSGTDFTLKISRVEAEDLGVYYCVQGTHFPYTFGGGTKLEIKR
Kd (EBOV GP[change] [1]): 12 nM | Kd (MARV GP[change]): 30 nM

B2: m2E4 (antibody, V domains shown)
VH: EVQLQESGPELVKPGASVKISCKASGYSFTGYYMNWVKQSPEKSLEWIGEINPSTGGTTYNQKFKAKATLTVDKSSSTAYMQLKSLTSEDSAVYYCVRYSHYYGSGSWYFDVWGTGTTVTVSS
VL: DIQMTQSPASLSASVGETVTITCRASENIYSNLAWYQQKQGKSPQLLVNAATNLADGVPSRFSGSGSGTQFSLKINSLQPEDFGSYYCQHFYVTPYTFGSGTKLEIKR
EC50 (EBOV GP[change] [2]): 1.27 µg/mL

Source: patent US20170158753A1 (INTEGRATED BIOTHERAPEUTICS, published 2017)
